The record followed here is patent US20100286374A1.

For this assay, the target named is huIgG1 Fc (dummy) K409D&K392D (human) [IgG part: P0DOX5]. Briefly: co-expression in 293-6E with M315 scFv-Fc D399′K; E357′K, non-reduced SDS-PAGE (FIG. 10), band density.

As to “huIgG1 Fc (dummy) K409D&K392D (from UniProt P0DOX5 218-449)”, the percentage of Dummy Fc Homodimer yield was 20.9%.
